# From patent US20140087995A1 (published 2014)
# Numbered stars: 1 amine (or outer) side, 2 acyl side, 3 side chain; on linkers, the order of the positions; unused ones are H or OH. Bridge positions count the residues as written; N and C are the ends. Side chains are listed from the residue outwards. Ends that are not written are not given here. * marks the point of attachment. C20 diacid = O=C(O)CCCCCCCCCCCCCCCCCCC(=O)*; γGlu = O=C(O)[C@H](CCC(=O)[*:2])N[*:1]
# T1: human amylin 3(a) receptor (human calcitonin receptor plus RAMP-3) (human, UniProt P30988 25-474; O60896 24-148, limits assumed)
# T1 construct: whole, on cells; Whole cells in the luciferase assay (Assay II a); also called hAmylin-R; human amylin receptor
# T1 sequence (looked up) 1: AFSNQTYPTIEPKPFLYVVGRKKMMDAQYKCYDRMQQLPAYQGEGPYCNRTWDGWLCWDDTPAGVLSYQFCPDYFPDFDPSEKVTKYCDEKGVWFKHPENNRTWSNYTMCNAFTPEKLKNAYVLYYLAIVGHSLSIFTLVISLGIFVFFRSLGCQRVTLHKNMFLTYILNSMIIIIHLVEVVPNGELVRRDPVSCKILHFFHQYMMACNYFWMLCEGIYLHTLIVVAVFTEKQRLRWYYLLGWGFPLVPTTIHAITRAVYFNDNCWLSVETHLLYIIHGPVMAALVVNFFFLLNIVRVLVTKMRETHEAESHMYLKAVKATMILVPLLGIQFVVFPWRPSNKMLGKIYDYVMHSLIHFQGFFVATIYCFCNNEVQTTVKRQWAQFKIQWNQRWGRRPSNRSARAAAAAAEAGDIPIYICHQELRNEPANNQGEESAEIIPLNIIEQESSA
# T1 sequence (looked up) 2: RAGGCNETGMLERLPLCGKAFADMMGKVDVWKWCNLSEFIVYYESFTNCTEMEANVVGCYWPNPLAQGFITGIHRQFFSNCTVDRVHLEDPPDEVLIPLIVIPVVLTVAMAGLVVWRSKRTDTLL
# T2: human calcitonin receptor (human, UniProt P30988 25-474)
# T2 sequence (looked up): T1 sequence (looked up) 1
# B1: N^α1-[(4S)-4-carboxy-4-[[(4S)-4-carboxy-4-(19-carboxynonadecanoylamino)butanoyl]amino]butanoyl]-[Glu14,Arg17,Pro21,Pro27,Pro37]-h-amylin (peptide)
# peptide: {C20 diacid-γGlu-γGlu}-KCNTATCATQRLAEFLRHSSPNFGAIPSSTNVGSNTP-NH2
# modifications: disulfide 2-7
# SMILES: CC[C@H](C)[C@H](NC(=O)[C@H](C)NC(=O)CNC(=O)[C@H](Cc1ccccc1)NC(=O)[C@H](CC(N)=O)NC(=O)[C@@H]1CCCN1C(=O)[C@H](CO)NC(=O)[C@H](CO)NC(=O)[C@H](Cc1c[nH]cn1)NC(=O)[C@H](CCCNC(=N)N)NC(=O)[C@H](CC(C)C)NC(=O)[C@H](Cc1ccccc1)NC(=O)[C@H](CCC(=O)O)NC(=O)[C@H](C)NC(=O)[C@H](CC(C)C)NC(=O)[C@H](CCCNC(=N)N)NC(=O)[C@H](CCC(N)=O)NC(=O)[C@@H](NC(=O)[C@H](C)NC(=O)[C@@H]1CSSC[C@H](NC(=O)[C@H](CCCCN)NC(=O)CC[C@H](NC(=O)CC[C@H](NC(=O)CCCCCCCCCCCCCCCCCCC(=O)O)C(=O)O)C(=O)O)C(=O)N[C@@H](CC(N)=O)C(=O)N[C@@H]([C@@H](C)O)C(=O)N[C@@H](C)C(=O)N[C@@H]([C@@H](C)O)C(=O)N1)[C@@H](C)O)C(=O)N1CCC[C@H]1C(=O)N[C@@H](CO)C(=O)N[C@@H](CO)C(=O)N[C@H](C(=O)N[C@@H](CC(N)=O)C(=O)N[C@H](C(=O)NCC(=O)N[C@@H](CO)C(=O)N[C@@H](CC(N)=O)C(=O)N[C@H](C(=O)N1CCC[C@H]1C(N)=O)[C@@H](C)O)C(C)C)[C@@H](C)O
# notes: also called compound 14
# B2: N^ε1-[(4S)-4-carboxy-4-(19-carboxynonadecanoylamino)butanoyl]-[Glu14,Arg17,Pro21,Pro27,His34,Glu35]-h-amylin (peptide)
# peptide: K([γGlu-C20 diacid])CNTATCATQRLAEFLRHSSPNFGAIPSSTNVGHETY-NH2
# modifications: disulfide 2-7; N-terminus assumed
# SMILES: CC[C@H](C)[C@H](NC(=O)[C@H](C)NC(=O)CNC(=O)[C@H](Cc1ccccc1)NC(=O)[C@H](CC(N)=O)NC(=O)[C@@H]1CCCN1C(=O)[C@H](CO)NC(=O)[C@H](CO)NC(=O)[C@H](Cc1c[nH]cn1)NC(=O)[C@H](CCCNC(=N)N)NC(=O)[C@H](CC(C)C)NC(=O)[C@H](Cc1ccccc1)NC(=O)[C@H](CCC(=O)O)NC(=O)[C@H](C)NC(=O)[C@H](CC(C)C)NC(=O)[C@H](CCCNC(=N)N)NC(=O)[C@H](CCC(N)=O)NC(=O)[C@@H](NC(=O)[C@H](C)NC(=O)[C@@H]1CSSC[C@H](NC(=O)[C@@H](N)CCCCNC(=O)CC[C@H](NC(=O)CCCCCCCCCCCCCCCCCCC(=O)O)C(=O)O)C(=O)N[C@@H](CC(N)=O)C(=O)N[C@@H]([C@@H](C)O)C(=O)N[C@@H](C)C(=O)N[C@@H]([C@@H](C)O)C(=O)N1)[C@@H](C)O)C(=O)N1CCC[C@H]1C(=O)N[C@@H](CO)C(=O)N[C@@H](CO)C(=O)N[C@H](C(=O)N[C@@H](CC(N)=O)C(=O)N[C@H](C(=O)NCC(=O)N[C@@H](Cc1c[nH]cn1)C(=O)N[C@@H](CCC(=O)O)C(=O)N[C@H](C(=O)N[C@@H](Cc1ccc(O)cc1)C(N)=O)[C@@H](C)O)C(C)C)[C@@H](C)O
# notes: also called compound 107
# B3: N^ε1-[(4S)-4-carboxy-4-(19-carboxynonadecanoylamino)butanoyl]-[Glu14,Arg17,Pro21,Pro27,Arg35]-h-amylin (peptide)
# peptide: K([γGlu-C20 diacid])CNTATCATQRLAEFLRHSSPNFGAIPSSTNVGSRTY-NH2
# modifications: disulfide 2-7; N-terminus assumed
# SMILES: CC[C@H](C)[C@H](NC(=O)[C@H](C)NC(=O)CNC(=O)[C@H](Cc1ccccc1)NC(=O)[C@H](CC(N)=O)NC(=O)[C@@H]1CCCN1C(=O)[C@H](CO)NC(=O)[C@H](CO)NC(=O)[C@H](Cc1c[nH]cn1)NC(=O)[C@H](CCCNC(=N)N)NC(=O)[C@H](CC(C)C)NC(=O)[C@H](Cc1ccccc1)NC(=O)[C@H](CCC(=O)O)NC(=O)[C@H](C)NC(=O)[C@H](CC(C)C)NC(=O)[C@H](CCCNC(=N)N)NC(=O)[C@H](CCC(N)=O)NC(=O)[C@@H](NC(=O)[C@H](C)NC(=O)[C@@H]1CSSC[C@H](NC(=O)[C@@H](N)CCCCNC(=O)CC[C@H](NC(=O)CCCCCCCCCCCCCCCCCCC(=O)O)C(=O)O)C(=O)N[C@@H](CC(N)=O)C(=O)N[C@@H]([C@@H](C)O)C(=O)N[C@@H](C)C(=O)N[C@@H]([C@@H](C)O)C(=O)N1)[C@@H](C)O)C(=O)N1CCC[C@H]1C(=O)N[C@@H](CO)C(=O)N[C@@H](CO)C(=O)N[C@H](C(=O)N[C@@H](CC(N)=O)C(=O)N[C@H](C(=O)NCC(=O)N[C@@H](CO)C(=O)N[C@@H](CCCNC(=N)N)C(=O)N[C@H](C(=O)N[C@@H](Cc1ccc(O)cc1)C(N)=O)[C@@H](C)O)C(C)C)[C@@H](C)O
# notes: also called compound 51
# B4: N^α1N^α1-[(4S)-4-carboxy-4-(19-carboxynonadecanoylamino)butanoyl]-[Glu14,Arg17,Pro21,Pro27,Glu35]-h-amylin (peptide)
# peptide: {C20 diacid-γGlu}-KCNTATCATQRLAEFLRHSSPNFGAIPSSTNVGSETY-NH2
# modifications: disulfide 2-7
# SMILES: CC[C@H](C)[C@H](NC(=O)[C@H](C)NC(=O)CNC(=O)[C@H](Cc1ccccc1)NC(=O)[C@H](CC(N)=O)NC(=O)[C@@H]1CCCN1C(=O)[C@H](CO)NC(=O)[C@H](CO)NC(=O)[C@H](Cc1c[nH]cn1)NC(=O)[C@H](CCCNC(=N)N)NC(=O)[C@H](CC(C)C)NC(=O)[C@H](Cc1ccccc1)NC(=O)[C@H](CCC(=O)O)NC(=O)[C@H](C)NC(=O)[C@H](CC(C)C)NC(=O)[C@H](CCCNC(=N)N)NC(=O)[C@H](CCC(N)=O)NC(=O)[C@@H](NC(=O)[C@H](C)NC(=O)[C@@H]1CSSC[C@H](NC(=O)[C@H](CCCCN)NC(=O)CC[C@H](NC(=O)CCCCCCCCCCCCCCCCCCC(=O)O)C(=O)O)C(=O)N[C@@H](CC(N)=O)C(=O)N[C@@H]([C@@H](C)O)C(=O)N[C@@H](C)C(=O)N[C@@H]([C@@H](C)O)C(=O)N1)[C@@H](C)O)C(=O)N1CCC[C@H]1C(=O)N[C@@H](CO)C(=O)N[C@@H](CO)C(=O)N[C@H](C(=O)N[C@@H](CC(N)=O)C(=O)N[C@H](C(=O)NCC(=O)N[C@@H](CO)C(=O)N[C@@H](CCC(=O)O)C(=O)N[C@H](C(=O)N[C@@H](Cc1ccc(O)cc1)C(N)=O)[C@@H](C)O)C(C)C)[C@@H](C)O
# notes: also called compound 22
# B5: N^ε1-[(4S)-4-carboxy-4-(19-carboxynonadecanoylamino)butanoyl]-[Glu14,Arg17,Pro21,Pro27,Pro34,Arg35]-h-amylin (peptide)
# peptide: K([γGlu-C20 diacid])CNTATCATQRLAEFLRHSSPNFGAIPSSTNVGPRTY-NH2
# modifications: disulfide 2-7; N-terminus assumed
# SMILES: CC[C@H](C)[C@H](NC(=O)[C@H](C)NC(=O)CNC(=O)[C@H](Cc1ccccc1)NC(=O)[C@H](CC(N)=O)NC(=O)[C@@H]1CCCN1C(=O)[C@H](CO)NC(=O)[C@H](CO)NC(=O)[C@H](Cc1c[nH]cn1)NC(=O)[C@H](CCCNC(=N)N)NC(=O)[C@H](CC(C)C)NC(=O)[C@H](Cc1ccccc1)NC(=O)[C@H](CCC(=O)O)NC(=O)[C@H](C)NC(=O)[C@H](CC(C)C)NC(=O)[C@H](CCCNC(=N)N)NC(=O)[C@H](CCC(N)=O)NC(=O)[C@@H](NC(=O)[C@H](C)NC(=O)[C@@H]1CSSC[C@H](NC(=O)[C@@H](N)CCCCNC(=O)CC[C@H](NC(=O)CCCCCCCCCCCCCCCCCCC(=O)O)C(=O)O)C(=O)N[C@@H](CC(N)=O)C(=O)N[C@@H]([C@@H](C)O)C(=O)N[C@@H](C)C(=O)N[C@@H]([C@@H](C)O)C(=O)N1)[C@@H](C)O)C(=O)N1CCC[C@H]1C(=O)N[C@@H](CO)C(=O)N[C@@H](CO)C(=O)N[C@H](C(=O)N[C@@H](CC(N)=O)C(=O)N[C@H](C(=O)NCC(=O)N1CCC[C@H]1C(=O)N[C@@H](CCCNC(=N)N)C(=O)N[C@H](C(=O)N[C@@H](Cc1ccc(O)cc1)C(N)=O)[C@@H](C)O)C(C)C)[C@@H](C)O
# B6: N^ε1-[(4S)-4-carboxy-4-(19-carboxynonadecanoylamino)butanoyl]-[Glu14,Arg17,Pro21,Pro27,Arg34,Glu35]-h-amylin (peptide)
# peptide: K([γGlu-C20 diacid])CNTATCATQRLAEFLRHSSPNFGAIPSSTNVGRETY-NH2
# modifications: disulfide 2-7; N-terminus assumed
# SMILES: CC[C@H](C)[C@H](NC(=O)[C@H](C)NC(=O)CNC(=O)[C@H](Cc1ccccc1)NC(=O)[C@H](CC(N)=O)NC(=O)[C@@H]1CCCN1C(=O)[C@H](CO)NC(=O)[C@H](CO)NC(=O)[C@H](Cc1c[nH]cn1)NC(=O)[C@H](CCCNC(=N)N)NC(=O)[C@H](CC(C)C)NC(=O)[C@H](Cc1ccccc1)NC(=O)[C@H](CCC(=O)O)NC(=O)[C@H](C)NC(=O)[C@H](CC(C)C)NC(=O)[C@H](CCCNC(=N)N)NC(=O)[C@H](CCC(N)=O)NC(=O)[C@@H](NC(=O)[C@H](C)NC(=O)[C@@H]1CSSC[C@H](NC(=O)[C@@H](N)CCCCNC(=O)CC[C@H](NC(=O)CCCCCCCCCCCCCCCCCCC(=O)O)C(=O)O)C(=O)N[C@@H](CC(N)=O)C(=O)N[C@@H]([C@@H](C)O)C(=O)N[C@@H](C)C(=O)N[C@@H]([C@@H](C)O)C(=O)N1)[C@@H](C)O)C(=O)N1CCC[C@H]1C(=O)N[C@@H](CO)C(=O)N[C@@H](CO)C(=O)N[C@H](C(=O)N[C@@H](CC(N)=O)C(=O)N[C@H](C(=O)NCC(=O)N[C@@H](CCCNC(=N)N)C(=O)N[C@@H](CCC(=O)O)C(=O)N[C@H](C(=O)N[C@@H](Cc1ccc(O)cc1)C(N)=O)[C@@H](C)O)C(C)C)[C@@H](C)O
# Target: T1, human amylin 3(a) receptor (human …)
# Experiment: SPA competition binding, displacement of 125I-rat amylin from membranes of Amylin 3(a)/CRE-luc BHK cells (Assay V)
# How it was run: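 SPA beads with BHK Amylin 3(a)/CRE-luc cell membranes (35 ng/μL final) in 50 mM Hepes pH 7.4, 1 mM CaCl2, 5 mM MgCl₂, 0.1% OA, 0.02% Tween20.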
row,IC50,Binder
1,196 pM,B1
2,387 pM,B2
3,828 pM,B3
4,794 pM,B4
5,163 pM,B5
6,232 pM,B6

# Target: T1, human amylin 3(a) receptor (human …)
# Experiment: cell-based or functional assay
Ratio hCT/hAmylin funct.,hAmylin-R funct. EC50,Binder
1.6,146 pM,B1
6.3,405 pM,B2
14,372 pM,B3
3.8,270 pM,B4
,376 pM,B5
6.5,421 pM,B6

# Target: T2, human calcitonin receptor
# Experiment: cell-based or functional assay
row,hCTR funct. EC50,Binder
1,238 pM,B1
2,2540 pM,B2
3,5220 pM,B3
4,1030 pM,B4
5,6380 pM,B5
6,2740 pM,B6
